Numbering of substitutions follows the chain as printed. In names and notes the source's numbering stands.
B1: wild-type r-heparinase III: recombinantly expressed heparinase III construct without its putative signal sequence, His-tagged, from E. coli (protein, UniProt Q59289 25-659, looked up)
Heparin-sulfate lyase: QSSSITRKDFDHINLEYSGLEKVNKAVAAGNYDDAAKALLAYYREKSKAREPDFSNAEKPADIRQPIDKVTREMADKALVHQFQPHKGYGYFDYGKDINWQMWPVKDNEVRWQLHRVKWWQAMALVYHATGDEKYAREWVYQYSDWARKNPLGLSQDNDKFVWRPLEVSDRVQSLPPTFSLFVNSPAFTPAFLMEFLNSYHQQADYLSTHYAEQGNHRLFEAQRNLFAGVSFPEFKDSPRWRQTGISVLNTEIKKQVYADGMQFELSPIYHVAAIDIFLKAYGSAKRVNLEKEFPQSYVQTVENMIMALISISLPDYNTPMFGDSWITDKNFRMAQFASWARVFPANQAIKYFATDGKQGKAPNFLSKALSNAGFYTFRSGWDKNATVMVLKASPPGEFHAQPDNGTFELFIKGRNFTPDAGVFVYSGDEAIMKLRNWYRQTRIHSTLTLDNQNMVITKARQNKWETGNNLDVLTYTNPSYPNLDHQRSVLFINKKYFLVIDRAIGEATGNLGVHWQLKEDSNPVFDKTKNRVYTTYRDGNNLMIQSLNADRTSLNEEEGKVSYVYNKELKRPAFVFEKPKKNAGTQNFVSIVYPYDGQKAPEISIRENKGNDFEKGKLNLTLTINGKQQLVLVP
modifications: His tag; no signal sequence
B2: H105A: recombinant heparinase III with histidine 105 mutated to alanine (protein)
chain: MTTKIFKRIIVFAVIALSSGNILAQSSSITRKDFDHINLEYSGLEKVNKAVAAGNYDDAAKALLAYYREKSKAREPDFSNAEKPADIRQPIDKVTREMADKALVAQFQPHKGYGYFDYGKDINWQMWPVKDNEVRWQLHRVKWWQAMALVYHATGDEKYAREWVYQYSDWARKNPLGLSQDNDKFVWRPLEVSDRVQSLPPTFSLFVNSPAFTPAFLMEFLNSYHQQADYLSTHYAEQGNHRLFEAQRNLFAGVSFPEFKDSPRWRQTGISVLNTEIKKQVYADGMQFELSPIYHVAAIDIFLKAYGSAKRVNLEKEFPQSYVQTVENMIMALISISLPDYNTPMFGDSWITDKNFRMAQFASWARVFPANQAIKYFATDGKQGKAPNFLSKALSNAGFYTFRSGWDKNATVMVLKASPPGEFHAQPDNGTFELFIKGRNFTPDAGVFVYSGDEAIMKLRNWYRQTRIHSTLTLDNQNMVITKARQNKWETGNNLDVLTYTNPSYPNLDHQRSVLFINKKYFLVIDRAIGEATGNLGVHWQLKEDSNPVFDKTKNRVYTTYRDGNNLMIQSLNADRTSLNEEEGKVSYVYNKELKRPAFVFEKPKKNAGTQNFVSIVYPYDGQKAPEISIRENKGNDFEKGKLNLTLTINGKQQLVLVP
B3: H139A: recombinant heparinase III with histidine 139 mutated to alanine (protein)
chain: B2 chain with A105H, H139A
B4: H110A: recombinant heparinase III with histidine 110 mutated to alanine (protein)
chain: B2 chain with A105H, H110A

What was measured:
[1] = Heparinase III kinetic assay of r-heparinase III and histidine mutants; assay type: biochemical; conditions: heparan sulfate; for Km: calculated assuming a molecular weight of 15 kDa
Experimental: The activity of heparinase III was measured using a UV 232 nm assay similar to those reported for heparinase I and heparinase II (Godavarti, R., Cooney, C. L., Langer, R., and Sasisekharan, R. (1996) Biochemistry 35, 6846-52; Shriver, Z., Hu, Y., and Sasisekharan, R. (1998) J. Biol. Chem. 273, 10160-67; and Lohse, D. and Linhardt, R. J. (1992) J. Biol. Chem. 267, 781-87). Briefly, the increase in absorbance at 232 nm as a function of time was monitored under saturating substrate conditions. All assays were performed with heparan sulfate at a concentration of 2 mg/ml in 50 mM sodium phosphate, pH 7.6. The temperature for enzymatic activity measurements was kept constant at 35° C.
In parallel to the mapping studies and to confirm the results of the chemical modification experiments, each of the thirteen histidine residues present in heparinase III was mutated to alanine. The recombinant heparinase III mutant proteins were expressed, purified, and assessed for enzymatic activity towards heparan sulfate (Table 2).

[2] = SAX-HPLC analysis of exhaustive heparan sulfate digests; assay type: biochemical; conditions: for catalytic activity in overnight heparan sulfate digests: SAX-HPLC, overnight 37° C.
Experimental: Exhaustive digests of 3 mg/ml heparan sulfate in 50 mM sodium phosphate buffer, pH 7.6 were performed overnight at 37° C. for each of the mutants (20 μg protein). The reactions were loaded onto a Spherisorb S5 SAX column (Waters) and eluted using a linear gradient of 0.2-1.0 M NaCl, pH 3.5. The products were monitored at 232 nm and each of the major peaks was collected. To determine their composition, the collected fractions were analyzed by capillary electrophoresis and identified by comigration with known standards.
As a control, the r-heparinase III construct without its putative signal sequence was expressed. The concentration and purity of all recombinant enzyme preparations were determined using SDS-PAGE. The recombinantly expressed heparinase III was also compared to the heparinase III isolated from F. heparinum to ensure that they were the same molecular weight. Heparinase III (20 μg/mL) was incubated with a 4 mg/mL of heparan sulfate overnight at 37° C. The reaction was loaded onto a SAX column and the saccharide products were eluted using a gradient of 0.2-1.0 M NaCl, pH 3.5 over 30 min. and monitored at 232 nm. (A) Heparan sulfate digested with heparinase III from F. heparinum. (B) Heparan sulfate digested with recombinant heparinase III. (C) Heparan sulfate digested with the H295A mutant enzyme. (D) Heparan sulfate digested with the H510A mutant enzyme. (E) Heparan sulfate digested with the H105A mutant enzyme.

Molecule	kcat [1] [s⁻¹]	Km [1] [µM]	heparan sulfate degradation product profile compared to wild type heparinase III ([2]; SAX-HPLC and capillary electrophoresis)	catalytic activity in overnight heparan sulfate digests [2]
B1	78	80	identical product profile	–
B2	–	–	–	retain their catalytic activity
B3	68	191	–	retain their catalytic activity
B4	37	9	–	retain their catalytic activity

Reference: US7939292B2, “Modified heparinase III and methods of sequencing therewith” (Massachusetts Institute of Technology, priority 2000, dated 2011)
